# Results reported in the supplement of paper PMC12764529.
# ± gives the half width of the 95% confidence interval.
# Assay: folding stability dG unfold from trypsin proteolysis; higher = more stable
# Method in brief: (§1)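 Mini-proteins designed to be under 80 residues and free of cysteine were carried in a PA-tagged cDNA display construct and digested with trypsin and with chymotrypsin. Each protease was applied at 11 threefold-diluted concentrations, alongside a no-protease condition, before sequencing. K50 came from Bayesian fitting of the sequencing counts, and unfolding free energy was obtained by comparing it with a sequence-predicted unfolded-state K50 and a shared folded-state K50, for each protease separately or for both together. Designs were retained only if their AlphaFold2 dimer inter-PAE exceeded 15.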
row,Sequence,folding stability dG unfold [kcal/mol]
1,SAGGSAGGSAGKNWFFRIKIKYPNGEERTIYIPGTLDEIKEELPGPIKNIDIEPMPAEDMSAGGSAGGSAGG [r11_596_TrROS],1.05 ± 0.045
2,SAGGSPTIKLEILLPKEMTPEEVEALARELEEAGYEIVSIKVETVKDEDGREWVRVTITLRPKEDLSAGGSA [r2_442_TrROS_Hall],3.21 ± 0.076
3,SAGGSAGSMSEIEGLTVLEEREEPDPATGTTVPTLVVRDPEKGELYVITATTDPATGKPTYSFDLVSAGGSA [r15_170_JUSTAS],0.871 ± 0.03
4,SMVIEPKPDGTVTVTLPSSLPDLPREEVEAIVREALPPGASLGDSITVSRDPETGEVTVTAPVKFPPELASA [r9_1011_JUSTAS],1.55 ± 0.076
5,SAGGSAGGSAMVIEDPKTNKLIEVEKLPDGTYKVTIYDKKTGEKKTITMSKKDLEKLLKALSAGGSAGGSAG [r3_162_TrROS_Hall],4.91 ± 0.44
6,SAGGSALADRIKEIARENGFEPESVQFDPGNGHLMISIEPPDGRGVVVQIDIDNNNLKIQIQPLDDSAGGSA [r15_561_TrROS],1.2 ± 0.075
7,SMYYLVTITVTIRKDGKPVSVTPIYLAVPPEKAEEVAAEIKKSHPDLEVTITMEVTEVSEDDEEVKELLKSA [r9_782_JUSTAS],1.92 ± 0.13
8,SAGIKEIAKKLGFPIHSVKPTEPDPENGKLKWTVIFRNEKNNYYVIEIDLDDPEKIEIERFPPGEEIPSAGG [r19_72_TrROS],1.21 ± 0.13
9,SAGGSAGGSKMLLVKVYIEETKEEIVIEVPEGMTLEEIAERLRELGYKIKKIEVYELPPPPEESAGGSAGGS [r12_955_TrROS_Hall],3.82 ± 0.18

# Assay: folding stability dG unfold (combined trypsin and chymotrypsin); higher = more stable
# Method in brief: as §1
row,Sequence,folding stability dG unfold [kcal/mol]
1,SAGGVLTRVEIEIVEPGTGVPKRFEALLETGDDGTITLLLPDGTVIELPPTANIKILSEEVLSPSELSAGGS [r16_223_JUSTAS],1.37 ± 0.21
2,SAGGSAGGSAGEFEILSIETEPPNGRVEIAIRFDDWVVVINFDNPNEPELYPVRPDDGIFSAGGSAGGSAGG [r17_145_TrROS],2.3 ± 0.17
3,SMTITIERPVPPELTDRPLSLELPLPNGSTVSVKVETSPTTATVTITTNDPSLEAEVKARVEELLARLLASA [r9_790_JUSTAS],2.27 ± 0.1
4,SAGGSAMPKFYLDENGNPVYELPEEPTINTPLKIGIFDEENNPAIEIEIPGSTPLEEIIQKIKDAASAGGSA [r15_309_TrMRF],0.677 ± 0.2
5,SAGGSAGGSPRIVRVEVDPPPGGLGLARIEVEVVDPSTGVPRLERRTVPVPLGDWKKLLDFLGSAGGSAGGS [r12_691_TrMRF],2.23 ± 0.15
6,SAGGSAGGSGSMSIPVGSPEALREYLRERLPPEADLSEEELEALVEELLAKASIDSDGRLHLASAGGSAGGS [r12_983_JUSTAS],2.05 ± 0.053
7,SAGGSAGGSAGGSDKDPDKMKPKPVFEMEIVTYEWEKDGDGDWEPLSVEVQRIRVYAMDSAGGSAGGSAGGS [r4_288_TrROS],4.19 ± 0.19
8,SMRVTIMIPVPPGLKNLKLEFKLPYPDGREVDVDIQVDPNYITITVEMNNPGQMDWVQERFQEEIEKLLGSA [r9_790_TrROS],3.64 ± 0.16
9,SAGGSAGGSAGKNWFFRIKIKYPNGEERTIYIPGTLDEIKEELPGPIKNIDIEPMPAEDMSAGGSAGGSAGG [r11_596_TrROS],1.52 ± 0.078
10,SAGGSPTIKLEILLPKEMTPEEVEALARELEEAGYEIVSIKVETVKDEDGREWVRVTITLRPKEDLSAGGSA [r2_442_TrROS_Hall],3.73 ± 0.092
11,SAGGSAGSMSEIEGLTVLEEREEPDPATGTTVPTLVVRDPEKGELYVITATTDPATGKPTYSFDLVSAGGSA [r15_170_JUSTAS],0.595 ± 0.047
12,SMVIEPKPDGTVTVTLPSSLPDLPREEVEAIVREALPPGASLGDSITVSRDPETGEVTVTAPVKFPPELASA [r9_1011_JUSTAS],1.03 ± 0.084
13,SAGGSAGGSAMVIEDPKTNKLIEVEKLPDGTYKVTIYDKKTGEKKTITMSKKDLEKLLKALSAGGSAGGSAG [r3_162_TrROS_Hall],4.81 ± 0.36
14,SAGGSALADRIKEIARENGFEPESVQFDPGNGHLMISIEPPDGRGVVVQIDIDNNNLKIQIQPLDDSAGGSA [r15_561_TrROS],1.03 ± 0.13
15,SMYYLVTITVTIRKDGKPVSVTPIYLAVPPEKAEEVAAEIKKSHPDLEVTITMEVTEVSEDDEEVKELLKSA [r9_782_JUSTAS],2.79 ± 0.19
16,SAGIKEIAKKLGFPIHSVKPTEPDPENGKLKWTVIFRNEKNNYYVIEIDLDDPEKIEIERFPPGEEIPSAGG [r19_72_TrROS],1.39 ± 0.21
17,SAGGSAGGSKMLLVKVYIEETKEEIVIEVPEGMTLEEIAERLRELGYKIKKIEVYELPPPPEESAGGSAGGS [r12_955_TrROS_Hall],4.11 ± 0.3
